Test system: platinum-resistant ovarian cancer
Test: Clinical activity of DMUC5754A (RECIST v1.1) in ovarian cancer patients
Assay type: in vivo, human
Procedure: This multicenter, open-label, dose-escalation study was designed to identify the recommended Phase II dose (RP2D) of DMUC5754A in patients with platinum-resistant OC or unresectable pancreatic cancer. In the single-agent dose escalation stage utilizing a 3+3 enrollment scheme, patients were given intravenous DMUC5754A (Genentech Inc.) 0.3-3.2 mg/kg every 3 weeks (q3w) to evaluate the safety, tolerability, and pharmacokinetics of DMUC5754A. Following determination of the maximum tolerated dose (MTD), dose-expansion cohorts were enrolled at the RP2D of 2.4 mg/kg to further characterize the safety and preliminary clinical efficacy of DMUC5754A.
Dosing on a weekly (qlw) schedule was also evaluated at the RP2D, employing a 3+3 design to determine the MTD of weekly dosing, followed by a cohort expansion to further characterize the safety and activity of q1w dosing.
OC patients had advanced, epithelial ovarian, primary peritoneal, or fallopian tube cancer that progressed or relapsed within 6 months after the most recent treatment with a platinum-containing chemotherapy regimen and for which no standard therapy exists. […] Progression or relapse from prior platinum-based chemotherapy was documented by RECIST v1.1 or Gynecologic Cancer Intergroup (GCIG) CA125 progression criteria (Vergote et al., 2000). Patients were allowed ≤2 prior chemotherapy regimens.
Objective response rate was estimated only for patients with disease that was measurable by RECIST guidelines. Objective response is defined as a complete or partial response, as determined by investigator assessment and confirmed by repeat assessments ≥4 weeks after initial documentation. Duration of objective response was defined as the time from the initial complete or partial response to the time of disease progression or death.

B1: DMUC5754A: antibody-drug conjugate: humanized IgG1 anti-MUC16 monoclonal antibody and MMAE, linked through protease labile linker maleimidocaproyl-valine-citrulline-p-aminobenzyloxycarbonyl (conjugate, chains of the INN, looked up)
VH: EVQLVESGGGLVQPGGSLRLSCAASGYSITNDYAWNWVRQAPGKGLEWVGYISYSGYTTYNPSLKSRFTISRDTSKNTLYLQMNSLRAEDTAVYYCARWTSGLDYWGQGTLVTVSS
VL: DIQMTQSPSSLSASVGDRVTITCKASDLIHNWLAWYQQKPGKAPKLLIYGATSLETGVPSRFSGSGSGTDFTLTISSLQPEDFATYYCQQYWTTPFTFGQGTKVEIK
modifications: MMAE via mc-vc-PABC linker
0.8 mg/kg q1w (N = 3)
  Best response: Complete response, patients: 0
  Best response: Partial response, patients: 1
  Best response: Progressive disease, patients: 0
  Best response: Stable disease, patients: 2
  Best response: Unable to evaluate, patients: 0
  Duration of response, Median: 3.0 months
  Duration of response, Range: 3.0-3.0 months
1.1 mg/kg q1w
  unconfirmed partial responses, patients: 1
1.1 mg/kg q1w (N = 7)
  Best response: Complete response, patients: 0
  Best response: Partial response, patients: 1
  Best response: Progressive disease, patients: 3
  Best response: Stable disease, patients: 3
  Best response: Unable to evaluate, patients: 0
  Duration of response, Median: 6.8 months
  Duration of response, Range: 6.8-6.8 months
1.2 mg/kg q3w
  minor responses, patients: 1
1.4 mg/kg q1w
  minor responses, patients: 1
1.4 mg/kg q1w (N = 6)
  Best response: Complete response, patients: 0
  Best response: Partial response, patients: 1
  Best response: Progressive disease, patients: 2
  Best response: Stable disease, patients: 2
  Best response: Unable to evaluate, patients: 1
  Duration of response, Median: 4.6 months
  Duration of response, Range: 4.6-4.6 months
1.6 mg/kg q1w
  minor responses, patients: 1
2.4 mg/kg q3w
  minor responses, patients: Two
  unconfirmed partial responses, patients: 1
2.4 mg/kg q3w (N = 29)
  Best response: Complete response, patients: 1
  Best response: Partial response, patients: 3
  Best response: Progressive disease, patients: 6
  Best response: Stable disease, patients: 17
  Best response: Unable to evaluate, patients: 2
  Duration of response, Median: 4.9 months
  Duration of response, Range: 3.0-11.3 months
3.2 mg/kg q3w
  minor responses, patients: 1
FIG. 4
  average length of time on the study: 103 days
A patient at 3.2 mg/kg q3w, PD as overall status due to new lesions
  decrease in SLD of target lesions: > 30%
Of the 29 patients at 2.4 mg/kg q3w
  patients on the study ≥105 days: Sixteen
person, 2.4 mg/kg IV q3w, after two doses
  reduction (MRI), complete response: 100%
person, 2.4 mg/kg, after 8 doses
  tumor response nadir, reduction: 88%
person, 2.4 mg/kg, after two doses
  reduction in 3 target lesions (CT), partial response: 37%
q1w cohorts, at 0.8, 1.1, and 1.4 mg/kg levels
  confirmed responses: 3

From patent publication US11440969B2, “Use of human epididymis protein 4 (HE4) for assessing responsiveness of MUC 16-positive cancer treatment” (Genentech, Inc., priority 2016, dated 2022)
